{"source": "patent US20260250381A1", "binders": {"B1": {"name": "6E7 variant V34 (antibody, V domains shown)", "VH": "EVQLVQSGAEVKKPGESLKISCKGSGYSFTSYWIAWVRQMPGKGLEWMGIIYPGDSDTRYSPSFQGQVTISADKSISTAYLQWSSLKASDTAMYFCARQRTFYYDSSDYFDYWGQGTLVTVSS", "VL": "DIQMTQSPSSVSASVGDRVTITCRASQGISSWLAWYQQKPGKAPKLLIYAASSLQDGVPSRFSGSGSGTDFTLTISSLQPEDFATYFCQQADSFPRTFGQGTKLEIK"}, "B2": {"name": "6E7 variant V58 (antibody, V domains shown)", "VH": "B1 VH", "VL": "B1 VL with A50K, D56N"}, "B3": {"name": "6E7 variant V94 (antibody, V domains shown)", "VH": "B1 VH", "VL": "B1 VL with S52A, D56N"}, "B4": {"name": "6E7 variant V42 (antibody, V domains shown)", "VH": "B1 VH with Y32A", "VL": "B1 VL with D56N"}, "B5": {"name": "6E7 variant V54 (antibody, V domains shown)", "VH": "B1 VH with Y32Q", "VL": "B1 VL with D56N"}, "B6": {"name": "6E7 variant V67 (antibody, V domains shown)", "VH": "B1 VH with I50M", "VL": "B1 VL with D56N"}, "B7": {"name": "6E7 variant V47 (antibody, V domains shown)", "VH": "B1 VH", "VL": "B1 VL with D56N, R96M"}, "B8": {"name": "6E7 variant V82 (antibody, V domains shown)", "VH": "B1 VH", "VL": "B1 VL with A51G, D56N"}, "B9": {"name": "6E7 variant V69 (antibody, V domains shown)", "VH": "B1 VH", "VL": "B1 VL with W32Y, D56N"}, "B10": {"name": "6E7 variant V66 (antibody, V domains shown)", "VH": "B1 VH with Y27T", "VL": "B1 VL with D56N"}, "B11": {"name": "6E7 variant V93 (antibody, V domains shown)", "VH": "B1 VH", "VL": "B1 VL with S31G, D56N"}, "B12": {"name": "6E7 variant V56 (antibody, V domains shown)", "VH": "B1 VH with S61Q", "VL": "B1 VL with D56N"}, "B13": {"name": "6E7 variant V7 (antibody, V domains shown)", "VH": "B1 VH with Y32E", "VL": "B1 VL with D56N"}, "B14": {"name": "6E7 variant V45 (antibody, V domains shown)", "VH": "B1 VH", "VL": "B1 VL with W32F, D56N"}, "B15": {"name": "6E7 variant V78 (antibody, V domains shown)", "VH": "B1 VH with S28R", "VL": "B1 VL with D56N"}, "B16": {"name": "6E7 variant V71 (antibody, V domains shown)", "VH": "B1 VH", "VL": "B1 VL with D56N, F94E"}, "B17": {"name": "6E7 variant V80 (antibody, V domains shown)", "VH": "B1 VH with T101N", "VL": "B1 VL with D56N"}, "B18": {"name": "6E7 variant V8 (antibody, V domains shown)", "VH": "B1 VH with R59K", "VL": "B1 VL with D56N"}, "B19": {"name": "6E7 variant V57 (antibody, V domains shown)", "VH": "B1 VH", "VL": "B1 VL with R24A, D56N"}, "B20": {"name": "6E7 variant V43 (antibody, V domains shown)", "VH": "B1 VH with D57G", "VL": "B1 VL with D56N"}, "B21": {"name": "6E7 variant V9 (antibody, V domains shown)", "VH": "B1 VH with T101G", "VL": "B1 VL with D56N"}, "B22": {"name": "6E7 variant V79 (antibody, V domains shown)", "VH": "B1 VH with R59N", "VL": "B1 VL with D56N"}, "B23": {"name": "6E7 variant V10 (antibody, V domains shown)", "VH": "B1 VH", "VL": "B1 VL with A50S, D56N"}, "B24": {"name": "6E7 variant V83 (antibody, V domains shown)", "VH": "B1 VH", "VL": "B1 VL with D56N, D92V"}, "B25": {"name": "6E7 variant V91 (antibody, V domains shown)", "VH": "B1 VH with G54D", "VL": "B1 VL with D56N"}, "B26": {"name": "6E7 variant V90 (antibody, V domains shown)", "VH": "B1 VH with Y32E", "VL": "B1 VL with S31R, D56N"}, "B27": {"name": "6E7 variant V81 (antibody, V domains shown)", "VH": "B1 VH", "VL": "B1 VL with W32L, D56N"}, "B28": {"name": "6E7 variant V35 (antibody, V domains shown)", "VH": "B1 VH", "VL": "B1 VL with D56N, D92Y"}, "B29": {"name": "6E7 variant V6 (antibody, V domains shown)", "VH": "B1 VH with Y32M", "VL": "B1 VL with D56N"}, "B30": {"name": "6E7 variant V68 (antibody, V domains shown)", "VH": "B1 VH with Y103R", "VL": "B1 VL with D56N"}, "B31": {"name": "6E7 variant V92 (antibody, V domains shown)", "VH": "B1 VH with Y103H", "VL": "B1 VL with D56N"}, "B32": {"name": "6E7 variant V70 (antibody, V domains shown)", "VH": "B1 VH", "VL": "B1 VL with S52G, D56N"}, "B33": {"name": "6E7 variant V46 (antibody, V domains shown)", "VH": "B1 VH", "VL": "B1 VL with S53T, D56N"}, "B34": {"name": "6E7 variant V59 (antibody, V domains shown)", "VH": "B1 VH", "VL": "B1 VL with D56N, Q89M"}, "B35": {"name": "6E7 variant V44 (antibody, V domains shown)", "VH": "B1 VH with G54S", "VL": "B1 VL with D56N"}, "B36": {"name": "6E7 variant V55 (antibody, V domains shown)", "VH": "B1 VH with R59I, F64H", "VL": "B1 VL with D56N"}}, "note": "Residue numbers refer to the chain shown, from its start."}
{"target": "T1, human TREM2 (human) (UniProt Q9NZC2)", "T1 sequence (looked up)": "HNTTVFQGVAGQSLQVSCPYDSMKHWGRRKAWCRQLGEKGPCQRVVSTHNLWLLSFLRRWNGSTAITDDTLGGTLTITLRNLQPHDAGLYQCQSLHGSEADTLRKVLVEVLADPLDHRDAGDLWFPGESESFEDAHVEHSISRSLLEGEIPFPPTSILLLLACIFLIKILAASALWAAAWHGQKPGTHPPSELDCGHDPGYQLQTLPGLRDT", "assay": "1st screen, 110 nM Ab", "units": {"Binding Signal (fold over 6E7 parental antibody)": "fold"}}
{"binder": "B1", "Binding Signal (fold over 6E7 parental antibody)": 0.34}
{"binder": "B2", "Binding Signal (fold over 6E7 parental antibody)": 0.28}
{"binder": "B3", "Binding Signal (fold over 6E7 parental antibody)": 0.31}
{"binder": "B4", "Binding Signal (fold over 6E7 parental antibody)": 0.45}
{"binder": "B5", "Binding Signal (fold over 6E7 parental antibody)": 0.55}
{"binder": "B6", "Binding Signal (fold over 6E7 parental antibody)": 0.8}
{"binder": "B7", "Binding Signal (fold over 6E7 parental antibody)": 0.42}
{"binder": "B8", "Binding Signal (fold over 6E7 parental antibody)": 0.3}
{"binder": "B9", "Binding Signal (fold over 6E7 parental antibody)": 0.41}
{"binder": "B10", "Binding Signal (fold over 6E7 parental antibody)": 0.25}
{"binder": "B11", "Binding Signal (fold over 6E7 parental antibody)": 0.35}
{"binder": "B12", "Binding Signal (fold over 6E7 parental antibody)": 0.23}
{"binder": "B13", "Binding Signal (fold over 6E7 parental antibody)": 0.11}
{"binder": "B14", "Binding Signal (fold over 6E7 parental antibody)": 0.43}
{"binder": "B15", "Binding Signal (fold over 6E7 parental antibody)": 0.86}
{"binder": "B16", "Binding Signal (fold over 6E7 parental antibody)": 0.37}
{"binder": "B17", "Binding Signal (fold over 6E7 parental antibody)": 0.59}
{"binder": "B18", "Binding Signal (fold over 6E7 parental antibody)": 0.28}
{"binder": "B19", "Binding Signal (fold over 6E7 parental antibody)": 0.84}
{"binder": "B20", "Binding Signal (fold over 6E7 parental antibody)": 0.2}
{"binder": "B21", "Binding Signal (fold over 6E7 parental antibody)": 0.67}
{"binder": "B22", "Binding Signal (fold over 6E7 parental antibody)": 0.7}
{"binder": "B23", "Binding Signal (fold over 6E7 parental antibody)": 0.76}
{"binder": "B24", "Binding Signal (fold over 6E7 parental antibody)": 0.2}
{"binder": "B25", "Binding Signal (fold over 6E7 parental antibody)": 0.25}
{"binder": "B26", "Binding Signal (fold over 6E7 parental antibody)": 0.33}
{"binder": "B27", "Binding Signal (fold over 6E7 parental antibody)": 0.17}
{"binder": "B28", "Binding Signal (fold over 6E7 parental antibody)": 0.21}
{"binder": "B29", "Binding Signal (fold over 6E7 parental antibody)": 0.2}
{"binder": "B30", "Binding Signal (fold over 6E7 parental antibody)": 0.44}
{"binder": "B31", "Binding Signal (fold over 6E7 parental antibody)": 0.22}
{"binder": "B32", "Binding Signal (fold over 6E7 parental antibody)": 0.79}
{"binder": "B33", "Binding Signal (fold over 6E7 parental antibody)": 0.83}
{"binder": "B34", "Binding Signal (fold over 6E7 parental antibody)": 0.19}
{"binder": "B35", "Binding Signal (fold over 6E7 parental antibody)": 0.65}
{"binder": "B36", "Binding Signal (fold over 6E7 parental antibody)": 0.24}
{"target": "T1, human TREM2 (human)", "assay": "2nd screen, 100 nM Ab", "units": {"Binding Signal (fold over 6E7 parental antibody)": "fold"}}
{"binder": "B1", "Binding Signal (fold over 6E7 parental antibody)": 1.02}
{"binder": "B2", "Binding Signal (fold over 6E7 parental antibody)": 0.68}
{"binder": "B3", "Binding Signal (fold over 6E7 parental antibody)": 0.87}
{"binder": "B4", "Binding Signal (fold over 6E7 parental antibody)": 0.41}
{"binder": "B5", "Binding Signal (fold over 6E7 parental antibody)": 0.54}
{"binder": "B6", "Binding Signal (fold over 6E7 parental antibody)": 0.84}
{"binder": "B7", "Binding Signal (fold over 6E7 parental antibody)": 0.47}
{"binder": "B8", "Binding Signal (fold over 6E7 parental antibody)": 0.79}
{"binder": "B9", "Binding Signal (fold over 6E7 parental antibody)": 0.4}
{"binder": "B10", "Binding Signal (fold over 6E7 parental antibody)": 0.74}
{"binder": "B11", "Binding Signal (fold over 6E7 parental antibody)": 1.05}
{"binder": "B12", "Binding Signal (fold over 6E7 parental antibody)": 0.59}
{"binder": "B13", "Binding Signal (fold over 6E7 parental antibody)": 0.32}
{"binder": "B14", "Binding Signal (fold over 6E7 parental antibody)": 0.53}
{"binder": "B15", "Binding Signal (fold over 6E7 parental antibody)": 1.11}
{"binder": "B16", "Binding Signal (fold over 6E7 parental antibody)": 0.48}
{"binder": "B17", "Binding Signal (fold over 6E7 parental antibody)": 0.5}
{"binder": "B18", "Binding Signal (fold over 6E7 parental antibody)": 0.77}
{"binder": "B19", "Binding Signal (fold over 6E7 parental antibody)": 0.85}
{"binder": "B20", "Binding Signal (fold over 6E7 parental antibody)": 0.33}
{"binder": "B21", "Binding Signal (fold over 6E7 parental antibody)": 0.54}
{"binder": "B22", "Binding Signal (fold over 6E7 parental antibody)": 0.52}
{"binder": "B23", "Binding Signal (fold over 6E7 parental antibody)": 0.7}
{"binder": "B24", "Binding Signal (fold over 6E7 parental antibody)": 0.29}
{"binder": "B25", "Binding Signal (fold over 6E7 parental antibody)": 0.61}
{"binder": "B26", "Binding Signal (fold over 6E7 parental antibody)": 0.36}
{"binder": "B27", "Binding Signal (fold over 6E7 parental antibody)": 0.23}
{"binder": "B28", "Binding Signal (fold over 6E7 parental antibody)": 0.29}
{"binder": "B29", "Binding Signal (fold over 6E7 parental antibody)": 0.56}
{"binder": "B30", "Binding Signal (fold over 6E7 parental antibody)": 0.43}
{"binder": "B31", "Binding Signal (fold over 6E7 parental antibody)": 0.65}
{"binder": "B32", "Binding Signal (fold over 6E7 parental antibody)": 0.84}
{"binder": "B33", "Binding Signal (fold over 6E7 parental antibody)": 0.96}
{"binder": "B34", "Binding Signal (fold over 6E7 parental antibody)": 0.6}
{"binder": "B35", "Binding Signal (fold over 6E7 parental antibody)": 0.52}
{"binder": "B36", "Binding Signal (fold over 6E7 parental antibody)": 0.66}
